Experimental findings from patent US20250276077A1 (IMMUNOME, published 2025) are described below.

The labels stand for the following.
B1: AB-010358 (antibody, mouse IgG2a, V domains shown)
VH: QVQLQQWGAGLLKPSETLSLTCAVYGGSFSDYYWSWIRQPPGKGLEWIGEINHRGSINYNNYNPSLKSRVTISVDTSKNQFSLKLSSVTAADTAVYYCAKPLRPHCTNGVCYSGDAFDIWGQGTMVTVAS
VL: SYVLTQPPSVSVAPGQTARITCGGNNIGSKNVHWYQQKPGQAPVLVVYDDSDRPSGIPERFSGSNSGNTATLTISRVEAGDEADYYCQVWDSSSDHLVFGGGTKLTVL
B2: AB-010360 (antibody, mouse IgG2a, V domains shown)
VH: B1 VH with D31G
VL: B1 VL with R60Q
B3: AB-010365 (antibody, V domains shown)
VH: B1 VH with D31G, R54A
VL: B1 VL with L97V
B4: AB-010364 (antibody, mouse IgG2a, V domains shown)
VH: B1 VH with D31G, R54A
VL: B1 VL with R60Q, L97V
B5: AB-010359 (antibody, V domains shown)
VH: B1 VH
VL: B1 VL with L97V
B6: AB-010362 (antibody, mouse IgG2a, V domains shown)
VH: B1 VH with D31G
VL: B1 VL
B7: AB-010684 (antibody, V domains shown)
VH: B1 VH with D31G, T107I
VL: B1 VL with R60Q, S92H, L97V
B8: AB-010686 (antibody, V domains shown)
VH: B1 VH with D31G
VL: B1 VL with R60Q, S93R, L97V
B9: AB-010674 (antibody, V domains shown)
VH: B1 VH
VL: B1 VL with S29Y, R60Q, S93E, L97V
B10: AB-010689 (antibody, V domains shown)
VH: B1 VH with D31G, T107I
VL: B1 VL with G23R, L97V
B11: AB-010690 (antibody, V domains shown)
VH: B1 VH with D31G
VL: B1 VL with G23R, S29Y, L97V
B12: AB-010672 (antibody, V domains shown)
VH: B1 VH
VL: B1 VL with R60Q, S93R, L97V
B13: AB-010691 (antibody, V domains shown)
VH: B1 VH with D31G
VL: B1 VL with G23R, K30M, L97V
B14: AB-010692 (antibody, V domains shown)
VH: B1 VH with D31G
VL: B1 VL with G23R, S92H, L97V
B15: AB-010688 (antibody, V domains shown)
VH: B1 VH with D31G
VL: B1 VL with S29Y, R60Q, S93E, L97V
B16: AB-010676 (antibody, V domains shown)
VH: B1 VH with D31G
VL: B1 VL with G23R, S29Y, R60Q, L97V
B17: AB-010685 (antibody, V domains shown)
VH: B1 VH with D31G, T107I
VL: B1 VL with S29Y, R60Q, S92H, L97V
B18: AB-010673 (antibody, V domains shown)
VH: B1 VH
VL: B1 VL with R60Q, S93E, L97V
B19: AB-010682 (antibody, V domains shown)
VH: B1 VH with D31G, T107I
VL: B1 VL with K30M, R60Q, L97V
B20: AB-010679 (antibody, V domains shown)
VH: B1 VH with D31G, T107I
VL: B1 VL with S29Y, R60Q, L97V
B21: AB-010681 (antibody, V domains shown)
VH: B1 VH with D31G
VL: B1 VL with S29Y, R60Q, S92H, L97V
B22: AB-010683 (antibody, V domains shown)
VH: B1 VH with D31G
VL: B1 VL with K30M, R60Q, S92H, L97V
B23: AB-010678 (antibody, V domains shown)
VH: B1 VH with D31G
VL: B1 VL with G23R, R60Q, S92H, L97V
B24: AB-010687 (antibody, V domains shown)
VH: B1 VH with D31G
VL: B1 VL with R60Q, S93E, L97V
B25: AB-010677 (antibody, V domains shown)
VH: B1 VH with D31G
VL: B1 VL with G23R, K30M, R60Q, L97V
B26: AB-010675 (antibody, V domains shown)
VH: B1 VH with D31G, T107I
VL: B1 VL with G23R, R60Q, L97V
B27: AB-010680 (antibody, V domains shown)
VH: B1 VH with D31G
VL: B1 VL with S29Y, K30M, R60Q, L97V

Numbering of substitutions follows the chain as printed.

In the first experiment the target is T1, Human EphA2 (ephrin receptor A2) on cells (human, UniProt P29317 25-976). In words: cell-based or functional assay.
T1 sequence (P29317 25-976): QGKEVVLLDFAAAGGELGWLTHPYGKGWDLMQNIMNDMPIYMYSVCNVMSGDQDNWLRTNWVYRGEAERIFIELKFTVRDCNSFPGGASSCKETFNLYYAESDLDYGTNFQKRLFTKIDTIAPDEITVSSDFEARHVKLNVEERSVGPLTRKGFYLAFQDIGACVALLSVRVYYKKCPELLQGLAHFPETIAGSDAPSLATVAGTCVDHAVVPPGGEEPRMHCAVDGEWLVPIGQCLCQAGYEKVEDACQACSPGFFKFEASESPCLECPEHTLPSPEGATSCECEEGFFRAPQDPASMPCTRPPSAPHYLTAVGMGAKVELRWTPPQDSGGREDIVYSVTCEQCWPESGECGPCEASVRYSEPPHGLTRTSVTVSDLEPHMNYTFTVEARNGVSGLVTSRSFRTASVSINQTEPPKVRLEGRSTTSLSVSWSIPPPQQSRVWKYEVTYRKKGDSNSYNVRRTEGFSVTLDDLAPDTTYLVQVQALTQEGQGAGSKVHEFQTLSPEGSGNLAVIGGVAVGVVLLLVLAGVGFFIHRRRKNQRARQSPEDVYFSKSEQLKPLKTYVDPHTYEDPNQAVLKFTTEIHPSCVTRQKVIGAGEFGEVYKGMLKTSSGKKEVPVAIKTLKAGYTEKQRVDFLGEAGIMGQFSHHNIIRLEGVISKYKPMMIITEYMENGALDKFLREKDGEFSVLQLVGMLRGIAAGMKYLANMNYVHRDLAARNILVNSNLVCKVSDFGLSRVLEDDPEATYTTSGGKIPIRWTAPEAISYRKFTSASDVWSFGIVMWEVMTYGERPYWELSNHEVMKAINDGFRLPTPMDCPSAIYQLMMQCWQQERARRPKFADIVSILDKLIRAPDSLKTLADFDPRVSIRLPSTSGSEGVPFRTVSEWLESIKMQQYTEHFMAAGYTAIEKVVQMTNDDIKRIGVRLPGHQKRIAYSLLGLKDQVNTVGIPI
Regarding B1, the “ADCC EC50” value amounted to 73.3 nM and the “ADCC Fold-improved (against AB-008873)” value was found to be 0.47 fold. As for B2, the “ADCC EC50” value stood at 4.3 nM and the “ADCC Fold-improved (against AB-008873)” value was 8.09 fold. Regarding B3, the “ADCC EC50” value came to 34.6 nM and the “ADCC Fold-improved (against AB-008873)” value came to 1.01 fold. In the same order, the values of B4 are 14.5 nM and 2.4 fold.

As to B5, the “ADCC EC50” value was 25.3 nM and the “ADCC Fold-improved (against AB-008873)” value was determined as 1.38 fold. The matching figures for B6: 12.8 nM and 2.72 fold.

For the next experiment, the target named is T1, Human EphA2 (ephrin receptor A2) on …. As to the kind of experiment: cell-based or functional assay. This is another data set of the same source.
Take B7: the “ADCC - EC50 (nM), Trial 1, A549” value is ~0.14 nM and the “ADCC - EC50 (nM), Trial 2, A549” value amounted to 0.048 nM. For the molecule B8, the “ADCC - EC50 (nM), Trial 1, A549” value came out at 6.4 nM. For the molecule B9, the “ADCC - EC50 (nM), Trial 1, A549” value was ~0.13 nM and the “ADCC - EC50 (nM), Trial 2, A549” value was determined as 0.1 nM.

In the case of B10, the “ADCC - EC50 (nM), Trial 1, A549” value was determined as 2.5 nM. The same measure, in the same setting: then B11, with 0.19 nM; and B12, with 12.4 nM; and B13, with 2.2 nM. The same measure, in the same setting: then B14, with 0.21 nM. In the case of B15, the “ADCC - EC50 (nM), Trial 1, A549” value is ~0.052 nM and the “ADCC - EC50 (nM), Trial 2, A549” value came to 0.032 nM. In the same order, the values of B16 are ~0.1 nM and 0.039 nM. For B17, the “ADCC - EC50 (nM), Trial 1, A549” value is < 0.03 nM and the “ADCC - EC50 (nM), Trial 2, A549” value came to 0.0057 nM. For B18, the “ADCC - EC50 (nM), Trial 1, A549” value stood at 3.9 nM.

Turning to B19, the “ADCC - EC50 (nM), Trial 1, A549” value was 3.2 nM. B20: the “ADCC - EC50 (nM), Trial 1, A549” value was ~0.15 nM and the “ADCC - EC50 (nM), Trial 2, A549” value was found to be 0.04 nM. The matching figures for B21: < 0.03 nM and 0.0079 nM. In the same order, the values of B22 are ~0.14 nM and 0.046 nM. In the same order, the values of B23 are ~0.14 nM and 0.047 nM.

For B24, the “ADCC - EC50 (nM), Trial 1, A549” value was 2.8 nM. The same measure, in the same setting: then B25, with 1.6 nM. On the same count and under the same terms, then B26, with 1.5 nM.

As to B27, the “ADCC - EC50 (nM), Trial 1, A549” value was ~0.081 nM and the “ADCC - EC50 (nM), Trial 2, A549” value stood at 0.031 nM.
